The values below are quoted from earlier work in publication PMC12298957.

A word on the Kd: it is the constant that tells how readily two partners part at equilibrium.

For the data set, the target named is FGFR2 (Homo sapiens) (UniProt P21802).
UniProt P21802, sequence (P21802 22-377): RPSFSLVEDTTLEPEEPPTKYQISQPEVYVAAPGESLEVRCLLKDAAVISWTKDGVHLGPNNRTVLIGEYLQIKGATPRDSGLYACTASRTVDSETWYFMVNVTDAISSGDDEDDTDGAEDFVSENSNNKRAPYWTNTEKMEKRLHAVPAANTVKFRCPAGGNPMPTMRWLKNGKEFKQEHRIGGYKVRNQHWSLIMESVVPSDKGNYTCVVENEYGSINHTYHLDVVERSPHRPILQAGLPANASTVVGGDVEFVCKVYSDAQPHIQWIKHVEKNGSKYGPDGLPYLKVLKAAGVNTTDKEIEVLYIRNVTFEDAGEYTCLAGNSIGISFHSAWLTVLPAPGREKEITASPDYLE

WRARVPL peptide: the Kd is 1.4 µM.
